This note sets out measurements from patent publication US20240400630A1.

Assay [1] deals with IL-2/IL-15 receptor on IL-2/IL-15-responsive HEK293 cells (human CD25 (IL-2Rα), CD122 (IL-2Rβ), CD132 (IL-2Rγ)) (human) (UniProt P01589). Briefly: cell-based or functional assay.
Assay [2] deals with IL-15R on human PBMCs (NK cells, CD8+ T cells, CD4+ T cells) (human). Briefly: cell-based or functional assay.

IL-2/IL-15 receptor on IL-2/IL-15-responsive HEK293 cells (human CD25 (IL-2Rα), CD122 (IL-2Rβ), CD132 (IL-2Rγ)) (human), sequence (P01589 22-272, chain 1 of 3): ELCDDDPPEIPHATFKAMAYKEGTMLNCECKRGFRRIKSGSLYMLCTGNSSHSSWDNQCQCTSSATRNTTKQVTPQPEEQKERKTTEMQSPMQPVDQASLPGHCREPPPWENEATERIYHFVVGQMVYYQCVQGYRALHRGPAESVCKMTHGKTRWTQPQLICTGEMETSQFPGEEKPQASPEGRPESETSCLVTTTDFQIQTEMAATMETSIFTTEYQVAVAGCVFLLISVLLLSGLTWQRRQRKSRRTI
IL-2/IL-15 receptor on IL-2/IL-15-responsive HEK293 cells (human CD25 (IL-2Rα), CD122 (IL-2Rβ), CD132 (IL-2Rγ)) (human), sequence (P14784 27-551, chain 2 of 3, further chain): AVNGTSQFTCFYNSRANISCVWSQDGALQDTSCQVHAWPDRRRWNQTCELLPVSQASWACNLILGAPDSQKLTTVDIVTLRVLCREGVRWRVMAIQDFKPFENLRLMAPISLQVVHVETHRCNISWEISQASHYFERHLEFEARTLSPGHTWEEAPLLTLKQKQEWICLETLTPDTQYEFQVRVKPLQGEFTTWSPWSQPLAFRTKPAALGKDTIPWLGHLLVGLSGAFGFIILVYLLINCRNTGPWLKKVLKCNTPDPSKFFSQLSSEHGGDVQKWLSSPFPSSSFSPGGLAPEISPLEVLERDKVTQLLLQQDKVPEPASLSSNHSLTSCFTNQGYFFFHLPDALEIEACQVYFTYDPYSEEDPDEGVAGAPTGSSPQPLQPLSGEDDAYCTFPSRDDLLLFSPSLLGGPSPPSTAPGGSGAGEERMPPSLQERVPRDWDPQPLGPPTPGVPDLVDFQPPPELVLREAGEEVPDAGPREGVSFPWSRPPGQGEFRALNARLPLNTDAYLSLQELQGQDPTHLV
IL-2/IL-15 receptor on IL-2/IL-15-responsive HEK293 cells (human CD25 (IL-2Rα), CD122 (IL-2Rβ), CD132 (IL-2Rγ)) (human), sequence (P31785 23-369, chain 3 of 3, further chain): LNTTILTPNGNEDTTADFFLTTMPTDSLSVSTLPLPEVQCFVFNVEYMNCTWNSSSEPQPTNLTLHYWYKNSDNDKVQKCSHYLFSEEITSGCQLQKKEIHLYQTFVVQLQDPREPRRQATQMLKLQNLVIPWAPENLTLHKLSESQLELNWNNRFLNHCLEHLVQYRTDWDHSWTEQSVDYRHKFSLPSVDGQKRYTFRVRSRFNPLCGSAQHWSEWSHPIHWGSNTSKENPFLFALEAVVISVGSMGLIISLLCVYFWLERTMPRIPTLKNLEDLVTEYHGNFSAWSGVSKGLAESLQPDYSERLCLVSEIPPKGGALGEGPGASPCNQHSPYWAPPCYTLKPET

In assay [1], “PeproTech IL-15 (Recombinant human IL-15, available from PeproTech, Catalog #200-15) (from UniProt P40933 49-162) (ligand)” came in with an EC50: HEK-Blue Reporter Assay of 1.48 pM and an EC50: HEK-Blue Reporter Assay (average, n>3) of 1.46 pM. Moreover, in assay [2], the EC50: Human PBMC Proliferation Ki67, CD4 came to 121 pM; the EC50: Human PBMC Proliferation Ki67, CD8 was found to be 221 pM; the EC50: Human PBMC Proliferation Ki67, NK Cells turned out to be 4 pM; the EC50: Human PBMC STAT5 Phosphorylation, CD4 worked out at 6.97 pM. Besides, in assay [2], the EC50: Human PBMC STAT5 Phosphorylation, CD8 came to 6.4 pM and the EC50: Human PBMC STAT5 Phosphorylation, NK cells was 1.79 pM.
